Measured values reported in patent US20150231220A1 (GREEN CROSS, published 2015).

B1: β-Cellulin (ligand, human, UniProt P35070 32-111, looked up)
chain: DGNSTRSPETNGLLCGDPEENCAATTTQSKRKGHFSRCPKQYKHYCIKGRCRFVVAEQTPSCVCDEGYIGARCERVDLFY
notes: also called BTC; betacellulin
B2: Heparin-binding EGF-like growth factor (ligand, human, UniProt Q99075 63-148, looked up)
chain: DLQEADLDLLRVTLSSKPQALATPNKEEHGKRKKKGKGLGKKRDPCLRKYKDFCIHGECKYVKELRAPSCICHPGYHGERCHGLSL
notes: also called HB-EGF

Assays:
[1] = target: EGFR coated on the plate (competitive binding test) (UniProt P00533); test: competitive ELISA on plate-coated EGFR; competitor GC1118 at […]; antibody:ligand molar ratio 1:10^4; remaining antibody binding
[2] = target: EGFR coated on the plate (competitive binding test) (UniProt P00533); test: competitive ELISA on plate-coated EGFR; competitor GC1118 at […]; antibody:ligand molar ratio 1:10^5; remaining antibody binding
[3] = target: EGFR coated on the plate (competitive binding test) (UniProt P00533); test: competitive ELISA on plate-coated EGFR; competitor cetuximab at […]; antibody:ligand molar ratio 1:10^5; remaining antibody binding
[4] = target: EGFR coated on the plate (competitive binding test) (UniProt P00533); test: competitive ELISA on plate-coated EGFR; competitor cetuximab at […]; antibody:ligand molar ratio 1:10^4; remaining antibody binding
[5] = target: T1, EGFR coated on the plate (competitive binding test) (UniProt P00533 25-645, limits assumed); test: competitive ELISA on plate-coated EGFR; competitor cetuximab at 1.5 nM; antibody:ligand molar ratio 1:10^4; remaining antibody binding
[6] = target: T1, EGFR coated on the plate (competitive …); test: competitive ELISA on plate-coated EGFR; competitor cetuximab at 1.5 nM; antibody:ligand molar ratio 1:10^5; remaining antibody binding
[7] = target: T1, EGFR coated on the plate (competitive …); test: competitive ELISA on plate-coated EGFR; competitor GC1118 at 1.5 nM; antibody:ligand molar ratio 1:10^4; remaining antibody binding
[8] = target: T1, EGFR coated on the plate (competitive …); test: competitive ELISA on plate-coated EGFR; competitor GC1118 at 1.5 nM; antibody:ligand molar ratio 1:10^5; remaining antibody binding

Row | Molecule | Antibody binding (%) [1] [%] | Antibody binding (%) [2] [%] | Antibody binding (%) [3] [%] | Antibody binding (%) [4] [%] | Antibody binding (%) [5] [%] | Antibody binding (%) [6] [%] | Antibody binding (%) [7] [%] | Antibody binding (%) [8] [%]
1 | Amphiregulin (from UniProt P15514 101-198) (ligand) | 99.6 | 99.9 | 99.9 | 96.6 |  |  |  | 
2 | B1 |  |  |  |  | 80.2 | 51.1 | 40.4 | 18.9
3 | B2 |  |  |  |  | 96.2 | 76.1 | 65.1 | 31.2
